The record followed here is patent US20080187528A1 (FUNCTIONAL GENETICS, published 2008).

Assay [1] addresses biotinylated peptide Bio-… containing 11 amino acid residues from the N terminus of the Ebola VP40 (Ebola virus (EBOV)).
In assay [2] the target is T1, truncated (31-326) Ebola VP40 (Ebola virus (EBOV), UniProt Q05128 31-326).
T1 sequence: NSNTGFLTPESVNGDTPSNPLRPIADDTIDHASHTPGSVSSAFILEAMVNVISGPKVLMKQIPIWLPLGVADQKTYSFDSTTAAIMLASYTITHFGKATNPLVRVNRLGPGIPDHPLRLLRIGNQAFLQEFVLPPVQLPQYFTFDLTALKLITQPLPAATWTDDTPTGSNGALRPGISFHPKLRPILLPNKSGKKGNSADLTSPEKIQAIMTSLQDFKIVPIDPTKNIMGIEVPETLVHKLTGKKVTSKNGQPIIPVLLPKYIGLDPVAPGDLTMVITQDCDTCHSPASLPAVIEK
In words: Far Western.

B1: purified TSG101 protein that contains only the UEV domain (other)
chain: AVSESQLKKMVSKYKYRDLTVRETVNVITLYKDLKPVLDSYVFNDGSSRELMNLTGTIPVPYRGNTYNIPICLWLLDTYPYNPPICFVKPTSSMTIKTGKHVDANGKIYLPYLHEWKHPQSDLLGLIQVMIVVFGDEPPVFSRP
As usually defined, the Kd is the concentration at which binding is half-saturated. Higher therefore signals weaker binding. For B1, in assay [1], the equilibrium dissociation constant (Kd) was found to be 2000 nM. Further, the binding result in assay [2] is “no binding”.
